The target in the assay is T1, hIL2-DM-his (human, UniProt P60568 21-153).
T1 construct: expressed in ExpiCHO-S cells, nickel-column purified; also called hIL-2 mutein containing two point mutations K64G and N90R (with a his-tag); not shown: his-tag
As to the kind of experiment: BLI ForteBio, Ab on Protein A sensor.

The Kd is the equilibrium constant for the complex coming apart. The low end stands for tighter binding, the high end for weaker binding. In general, koff refers to a measure of how fast the partners let go of each other. The low end stands for a long-lived complex, the high end for a short-lived complex. A word on the kon: it is the rate constant with which the complex forms. A high value points to fast association.

T1 sequence (P60568 21-153 K84G/N110R): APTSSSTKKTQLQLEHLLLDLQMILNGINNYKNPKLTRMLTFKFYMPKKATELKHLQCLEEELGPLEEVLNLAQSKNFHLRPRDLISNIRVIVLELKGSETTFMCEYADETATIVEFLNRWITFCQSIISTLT

B1: K1G1 (antibody, V domains shown)
VH: QVQLVQSGAEVKKPGATVKISCKVSGDTITAYYMHWVRQAPGQGLEWIGRIDPEDDSTKYAENFKGRVTITADTSTDTAYMELSSLRSEDTAVYYCTTVTFYYSRELRWFAYWGQGTLVTVSS
VL: DIVLTQSPATLSLSPGERATLSCQASQYISNYLSWYQQKPGQAPRLLIYQATSLASGIPARFSGSRSGTDFTLTISSLEPEDFAVYYCLQHYSTPYTFGQGTKLEIK
Consider B1, for which the dissociation constant Kd amounted to 1.43 nM, the off-rate constant (koff) worked out at 0.000491 s⁻¹ and the on-rate constant (kon) came out at 343000 M⁻¹ s⁻¹.

B2: K2G6 (antibody, V domains shown)
VH: QVQLVQSGAEVKKPGATVKISCKVSGDTITAYYMHWVRQAPGQGLEWIGRIDPDDDSTKYAENFKGRVTITADTSTDTAYMELSSLRSEDTAVYYCTTITFYYSRELRWFAYWGQGTLVTVSS
VL: DIVLTQSPATLSLSPGERATLSCQASQYISNYLSWYQQKPGQAPRLLIYSATSLASGIPARFSGSRSGTDFTLTISSLEPEDFAVYYCLQHYSTPYTFGQGTKLEIK
Molecule B2 gave a Kd of 1.33 nM, an off-rate (koff) of 0.000593 s⁻¹ and an on-rate (kon) of 446000 M⁻¹ s⁻¹.

B3: K2G7 (antibody, V domains shown)
VH: QVQLVQSGAEVKKPGATVKISCKVSGDTITAYYMHWVRQAPGQGLEWIGRIDPEDDSTKYAENFKGRVTITADTSTDTAYMELSSLRSEDTAVYYCTTITFYYTRELRWFAYWGQGTLVTVSS
VL: DIVLTQSPATLSLSPGERATLSCQASQYISNYLSWYQQKPGQAPRLLIYSATSLASGIPARFSGSRSGTDFTLTISSLEPEDFAVYYCLQHYSTPYTFGQGTKLEIK
Regarding B3, binding was put at a Kd of 1.35 nM, the koff was 0.000489 s⁻¹ and the kon was 361000 M⁻¹ s⁻¹.

B4: K2G10 (antibody, V domains shown)
VH: QVQLVQSGAEVKKPGATVKISCKVSGDTITAYYMHWVRQAPGQGLEWIGRIDPDDDSTKYAENFKGRVTITADTSTDTAYMELSSLRSEDTAVYYCTTITFYYTRELRWFAYWGQGTLVTVSS
VL: DIVLTQSPATLSLSPGERATLSCQASQYISNYLSWYQQKPGQAPRLLIYSATSLASGIPARFSGSRSGTDFTLTISSLEPEDFAVYYCLQHYSTPYTFGQGTKLEIK
The molecule B4 gave a dissociation constant Kd of 0.973 nM, a koff of 0.000418 s⁻¹ and an on-rate constant (kon) of 429000 M⁻¹ s⁻¹.

B5: K1G9 (antibody, V domains shown)
VH: QVQLVQSGAEVKKPGATVKISCKVSGDTITAYYMHWVRQAPGQGLEWIGRIDPEDDSTKYAENFKGRVTITADTSTDTAYMELSSLRSEDTAVYYCTTITFLYTRELRWFAYWGQGTLVTVSS
VL: DIVLTQSPATLSLSPGERATLSCQASQYISNYLSWYQQKPGQAPRLLIYQATSLASGIPARFSGSRSGTDFTLTISSLEPEDFAVYYCLQHYSTPYTFGQGTKLEIK
On to B5, for which the Kd was 0.856 nM, the dissociation rate constant (koff) is 0.000285 s⁻¹ and the kon was found to be 333000 M⁻¹ s⁻¹.

B6: K2G8 (antibody, V domains shown)
VH: QVQLVQSGAEVKKPGATVKISCKVSGDTITAYYMHWVRQAPGQGLEWIGRIDPEDDSTKYAENFKGRVTITADTSTDTAYMELSSLRSEDTAVYYCTTITFLYSRELRWFAYWGQGTLVTVSS
VL: DIVLTQSPATLSLSPGERATLSCQASQYISNYLSWYQQKPGQAPRLLIYSATSLASGIPARFSGSRSGTDFTLTISSLEPEDFAVYYCLQHYSTPYTFGQGTKLEIK
Molecule B6 displayed a dissociation constant (Kd) of 1.13 nM, a dissociation rate constant (koff) of 0.000507 s⁻¹ and an on-rate constant (kon) of 448000 M⁻¹ s⁻¹.

B7: K2G5 (antibody, V domains shown)
VH: QVQLVQSGAEVKKPGATVKISCKVSGDTITAYYMHWVRQAPGQGLEWIGRIDPEDDSTKYAENFKGRVTITADTSTDTAYMELSSLRSEDTAVYYCTTVTFYYTRELRWFAYWGQGTLVTVSS
VL: DIVLTQSPATLSLSPGERATLSCQASQYISNYLSWYQQKPGQAPRLLIYSATSLASGIPARFSGSRSGTDFTLTISSLEPEDFAVYYCLQHYSTPYTFGQGTKLEIK
As to B7, the Kd came out at 1.4 nM, the off-rate constant (koff) is 0.000553 s⁻¹ and the kon stood at 396000 M⁻¹ s⁻¹.

B8: K2G2 (antibody, V domains shown)
VH: QVQLVQSGAEVKKPGATVKISCKVSGDTITAYYMHWVRQAPGQGLEWIGRIDPEDDSTKYAENFKGRVTITADTSTDTAYMELSSLRSEDTAVYYCTTITFYYSRELRWFAYWGQGTLVTVSS
VL: DIVLTQSPATLSLSPGERATLSCQASQYISNYLSWYQQKPGQAPRLLIYSATSLASGIPARFSGSRSGTDFTLTISSLEPEDFAVYYCLQHYSTPYTFGQGTKLEIK
On to B8, for which the Kd was determined as 1.33 nM, the koff is 0.000562 s⁻¹ and the association rate constant (kon) was 424000 M⁻¹ s⁻¹.

B9: K2G3 (antibody, V domains shown)
VH: QVQLVQSGAEVKKPGATVKISCKVSGDTITAYYMHWVRQAPGQGLEWIGRIDPDDDSTKYAENFKGRVTITADTSTDTAYMELSSLRSEDTAVYYCTTVTFYYSRELRWFAYWGQGTLVTVSS
VL: DIVLTQSPATLSLSPGERATLSCQASQYISNYLSWYQQKPGQAPRLLIYSATSLASGIPARFSGSRSGTDFTLTISSLEPEDFAVYYCLQHYSTPYTFGQGTKLEIK
With B9, the Kd was 1.32 nM, the off-rate (koff) is 0.000512 s⁻¹ and the on-rate (kon) came to 389000 M⁻¹ s⁻¹.

B10: K1G12 (antibody, V domains shown)
VH: QVQLVQSGAEVKKPGATVKISCKVSGDTITAYYMHWVRQAPGQGLEWIGRIDPDDDSTKYAENFKGRVTITADTSTDTAYMELSSLRSEDTAVYYCTTITFLYTRELRWFAYWGQGTLVTVSS
VL: DIVLTQSPATLSLSPGERATLSCQASQYISNYLSWYQQKPGQAPRLLIYQATSLASGIPARFSGSRSGTDFTLTISSLEPEDFAVYYCLQHYSTPYTFGQGTKLEIK
With B10, the Kd was determined as 0.927 nM, the koff is 0.000396 s⁻¹ and the kon was 428000 M⁻¹ s⁻¹.

B11: K1G11 (antibody, V domains shown)
VH: QVQLVQSGAEVKKPGATVKISCKVSGDTITAYYMHWVRQAPGQGLEWIGRIDPDDDSTKYAENFKGRVTITADTSTDTAYMELSSLRSEDTAVYYCTTITFLYSRELRWFAYWGQGTLVTVSS
VL: DIVLTQSPATLSLSPGERATLSCQASQYISNYLSWYQQKPGQAPRLLIYQATSLASGIPARFSGSRSGTDFTLTISSLEPEDFAVYYCLQHYSTPYTFGQGTKLEIK
On to B11, for which the Kd came out at 0.928 nM, the off-rate (koff) turned out to be 0.000373 s⁻¹ and the association rate constant (kon) is 401000 M⁻¹ s⁻¹.

B12: K2G4 (antibody, V domains shown)
VH: QVQLVQSGAEVKKPGATVKISCKVSGDTITAYYMHWVRQAPGQGLEWIGRIDPEDDSTKYAENFKGRVTITADTSTDTAYMELSSLRSEDTAVYYCTTVTFLYSRELRWFAYWGQGTLVTVSS
VL: DIVLTQSPATLSLSPGERATLSCQASQYISNYLSWYQQKPGQAPRLLIYSATSLASGIPARFSGSRSGTDFTLTISSLEPEDFAVYYCLQHYSTPYTFGQGTKLEIK
B12 showed a dissociation constant (Kd) of 1.08 nM, a dissociation rate constant (koff) of 0.000455 s⁻¹ and an association rate constant (kon) of 421000 M⁻¹ s⁻¹.

B13: K1G8 (antibody, V domains shown)
VH: QVQLVQSGAEVKKPGATVKISCKVSGDTITAYYMHWVRQAPGQGLEWIGRIDPEDDSTKYAENFKGRVTITADTSTDTAYMELSSLRSEDTAVYYCTTITFLYSRELRWFAYWGQGTLVTVSS
VL: DIVLTQSPATLSLSPGERATLSCQASQYISNYLSWYQQKPGQAPRLLIYQATSLASGIPARFSGSRSGTDFTLTISSLEPEDFAVYYCLQHYSTPYTFGQGTKLEIK
The molecule B13 came in with a dissociation constant (Kd) of 0.778 nM, an off-rate (koff) of 0.000291 s⁻¹ and a kon of 374000 M⁻¹ s⁻¹.

The values above are taken from patent US20250346644A1 (LATTICON SUZHOU BIOPHARMACEUTICALS, published 2025).
